Key:
Experiment in all cases: fluorescence polarisation
[1] = target: GLhelix-4, redesigned RGS14 GoLoco motif peptide (UniProt O08773)
[2] = target: GLhelix-4 with Trp 534 mutated to alanine (UniProt O08773)
[3] = target: heterotrimeric G-protein alpha subunit Gαi1 in its inactive, GDP-complexed state (UniProt P63096 30-354)
heterotrimeric G-protein alpha subunit Gαi1 in its inactive, GDP-complexed state (UniProt P63096 30-354), sequence (P63096 30-354, one chain of several): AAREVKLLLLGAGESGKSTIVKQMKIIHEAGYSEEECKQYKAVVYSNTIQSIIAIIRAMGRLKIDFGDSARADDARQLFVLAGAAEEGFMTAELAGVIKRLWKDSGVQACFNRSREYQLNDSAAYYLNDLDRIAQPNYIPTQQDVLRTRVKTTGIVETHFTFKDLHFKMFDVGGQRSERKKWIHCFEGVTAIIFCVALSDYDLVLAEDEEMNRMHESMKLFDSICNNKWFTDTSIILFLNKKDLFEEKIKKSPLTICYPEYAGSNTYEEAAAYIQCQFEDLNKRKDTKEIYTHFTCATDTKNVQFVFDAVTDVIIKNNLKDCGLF

Molecule: heterotrimeric G-protein alpha subunit Gαi1 in its inactive, GDP-complexed state (from UniProt P63096 30-354) (natural protein)
- Kd [1]: 810 nM
- Kd [2]: 1400 nM

B1: RGS14 GoLoco motif peptide (wildtype, 36 residues) (peptide)
peptide: DIEGLVELLNRVQSSGAHDQRGLLRKEDLVLPEFLQ
- Kd [3]: 95 nM

Reference: paper PMC3081598 (Journal of the American Chemical Society, 2011)
